The values below come from US10648979B2, “Molecular probes for detecting gram-negative bacteria in vitro and in vivo” (priority 2014, dated 2020).

Series [1] is described as follows: Emission spectra of probes in PBS or DMSO (hydrophobic environment). The series is classed as physicochemical. Particulars: excited at 488 nm; NBD-UBIdend 5 μM, NBD-UBINle 15 μM, NBD-PMX 10 μM. The protocol:
A) Emission spectra shown for NBD-UBIdend (5 μM) and NBD-UBINle (15 μM) in the presence of PBS or DMSO (hydrophobic environment) when excited at 488 nm wavelength. B) Emission spectra shown for NBD-PMX (10 μM) in the presence of PBS or DMSO (hydrophobic environment) when excited at 488 nm wavelength. The fluorescence of both probes greatly increases under hydrophobic conditions as would be present upon binding to the bacterial membrane target.
To confirm the fluorescent reporter NBD retains its characteristics when coupled with our peptide moieties we measured the fluorescence of the compounds in conditions to mimic a hydrophobic environment (DMSO).

In another series the test system is bacteria in ovine lung. The experiment in a line: Automated image processing of entire FCFM videos from ovine lung. Particulars: 80 spots per frame threshold. An excerpt: FIG. 19: Image Processing Algorithms delineate ‘positive’ and ‘negative’ frames from FCFM data A) raw data for a frame that is deemed positive or negative. B) Without pre-processing, spot-detection is ineffective. Following estimation of background noise C), high-pass filtering D) and appropriate thresholding E), the current algorithm detect minimal punctate signal in negative frames F).
Analysis of NBD-UBIdend videos with thresholding at 80 spots per frame and an arbitrary cut-off of 10% enables objective detection of bacteria using a combination of Laplacian of Gaussian (LoG) and Difference of Gaussians (DoG) positive frames. […]
We have begun to develop bespoke image analysis/processing strategies to perform rapid real-time objective analysis of the large datasets generated by the probe/FCFM platform. […] These signal and image processing algorithms will be rapidly iterated in readiness for clinical application, and we expect significant components of machine-learning to be incorporated into further optimisation of NBD-UBIdend and NBD-PMX datasets.
Spots are enhanced in an image by convolving with a LoG or DoG filter. […] Finally, spots are detected with LoG or DoG. […]

Bridge positions count the residues as written; N and C are the ends. Square brackets hold non-standard residues; d marks the D form. Peptide text beside a SMILES is read from it. * marks the point of attachment. ξ: configuration not given here. NBD = O=[N+]([O-])c1ccc(*)c2nonc12; dDab = NCC[C@@H](N)C(=O)O; Dab = NCC[C@H](N)C(=O)O; AEEA = NCCOCCOCC(=O)O; ξDab = NCCC(N)C(=O)O

Take `CC(C)C[C@@H]1NC(=O)[C@@H](Cc2ccccc2)NC(=O)[C@@H](CCN)NC(=O)C(NC(=O)[C@H](CCN)NC(=O)[C@@H](NC(=O)COCCOCCNc2ccc([N+](=O)[O-])c3nonc23)[C@@H](C)O)CCNC(=O)[C@@H]([C@H](C)O)NC(=O)[C@H](CCN)NC(=O)[C@H](CCN)NC1=O` (some centres unmarked) [NBD-PMX] ({NBD-AEEA}-T[Dab][ξDab][dDab][dF]L[Dab][Dab][dT]; lactam 3-C): in series [1], the “fluorescence in DMSO compared to PBS” value was “significant increase in fluorescence”. In addition, the “detection by automated image processing (percentage positive frames, YES/NO)” value with bacteria in ovine lung is “unequivocal detection of bacteria and Gram status”.
